According to article PMC5642273:

Substrate: CC(C)=CCC/C(C)=C/COP(=O)(O)OP(=O)(O)O
Assay: purified protein
Settings: Mn2+

B1: (+)-limonene synthase [(+)-LS] (Citrus sinensis) (protein)
chain: RRSANYQPSIWDHDFLQSLNSNYTDETYKRRAEELKGKVKTAIKDVTEPLDQLELIDNLQRLGLAYHFEPEIRNILRNIHNHNKDYNWRKENLYATSLEFRLLRQHGYPVSQEVFSGFKDDKVGFICDDFKGILSLHEASYYSLEGESIMEEAWQFTSKHLKEMMITSNSKEEDVFVAEQAKRALELPLHWKAPMLEARWFIHVYEKREDKNHLLLELAKLEFNTLQAIYQEELKDISGWWKDTGLGEKLSFARNRLVASFLWSMGIAFEPQFAYCRRVLTISIALITVIDDIYDVYGTLDELEIFTDAVARWDINYALKHLPGYMKMCFLALYNFVNEFAYYVLKQQDFDMLLSIKHAWLGLIQAYLVEAKWYHSKYTPKLEEYLENGLVSITGPLIITISYLSGTNPIIKKELEFLESNPDIVHWSSKIFRLQDDLGTSSDEIQRGDVPKSIQCYMHETGASEEVAREHIKDMMRQMWKKVNAYTADKDSPLTRTTAEFLLNLVRMSHFMYLHGDGHGVQNQETIDVGFTLLFQPIPLEDKDMAFTASPGTKG
- Km: 13.1 ± 0.6 µM
